Data from article PMC8405949 (2021).
Blank lines part the entries; values can stand above or below the binder they belong to.

Legend:
Assay in all cases: SPR
[1] = target: XRCC1 cerebellar ataxia-related K431N mutant (human, UniProt P18887 1-633, K431N)
[2] = target: XRCC1 cancer-associated variant P161L (human, UniProt P18887 1-633, P161L)
[3] = target: XRCC1 cancer-associated variant R194W (human, UniProt P18887 1-633, R194W)
[4] = target: XRCC1 cancer-associated variant R280H (human, UniProt P18887 1-633, R280H)
[5] = target: XRCC1 cancer-associated variant Y576S (human, UniProt P18887 1-633, Y576S)

- Kd [2]: 320 nM
- Kd [3]: 686 nM
- Kd [4]: 569 nM
- Kd [5]: 422 nM
B1: Aprataxin (APTX), human wild-type full-length (enzyme)
chain: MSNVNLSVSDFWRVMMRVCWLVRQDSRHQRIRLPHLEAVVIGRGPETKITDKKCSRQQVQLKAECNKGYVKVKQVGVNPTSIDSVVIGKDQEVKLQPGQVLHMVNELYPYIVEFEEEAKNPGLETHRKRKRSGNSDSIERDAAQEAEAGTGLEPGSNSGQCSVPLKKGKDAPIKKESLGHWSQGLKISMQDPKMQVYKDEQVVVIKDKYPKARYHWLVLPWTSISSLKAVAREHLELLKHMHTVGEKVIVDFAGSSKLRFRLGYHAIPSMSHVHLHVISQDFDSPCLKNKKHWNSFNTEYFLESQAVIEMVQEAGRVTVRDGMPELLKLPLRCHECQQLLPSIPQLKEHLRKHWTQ
- Kd [1]: 301 nM

- Kd [2]: 37.3 nM
- Kd [3]: 44.9 nM
- Kd [4]: 43.6 nM
- Kd [5]: 50.4 nM
B2: DNA ligase IIIα, human wild-type full-length (1–922 aa) (enzyme)
chain: MAEQRFCVDYAKRGTAGCKKCKEKIVKGVCRIGKVVPNPFSESGGDMKEWYHIKCMFEKLERARATTKKIEDLTELEGWEELEDNEKEQITQHIADLSSKAAGTPKKKAVVQAKLTTTGQVTSPVKGASFVTSTNPRKFSGFSAKPNNSGEAPSSPTPKRSLSSSKCDPRHKDCLLREFRKLCAMVADNPSYNTKTQIIQDFLRKGSAGDGFHGDVYLTVKLLLPGVIKTVYNLNDKQIVKLFSRIFNCNPDDMARDLEQGDVSETIRVFFEQSKSFPPAAKSLLTIQEVDEFLLRLSKLTKEDEQQQALQDIASRCTANDLKCIIRLIKHDLKMNSGAKHVLDALDPNAYEAFKASRNLQDVVERVLHNAQEVEKEPGQRRALSVQASLMTPVQPMLAEACKSVEYAMKKCPNGMFSEIKYDGERVQVHKNGDHFSYFSRSLKPVLPHKVAHFKDYIPQAFPGGHSMILDSEVLLIDNKTGKPLPFGTLGVHKKAAFQDANVCLFVFDCIYFNDVSLMDRPLCERRKFLHDNMVEIPNRIMFSEMKRVTKALDLADMITRVIQEGLEGLVLKDVKGTYEPGKRHWLKVKKDYLNEGAMADTADLVVLGAFYGQGSKGGMMSIFLMGCYDPGSQKWCTVTKCAGGHDDATLARLQNELDMVKISKDPSKIPSWLKVNKIYYPDFIVPDPKKAAVWEITGAEFSKSEAHTADGISIRFPRCTRIRDDKDWKSATNLPQLKELYQLSKEKADFTVVAGDEGSSTTGGSSEENKGPSGSAVSRKAPSKPSASTKKAEGKLSNSNSKDGNMQTAKPSAMKVGEKLATKSSPVKVGEKRKAADETLCQTKVLLDIFTGVRLYLPPSTPDFSRLRRYFVAFDGDLVQEFDMTSATHVLGSRDKNPAAQQVSPEWIWACIRKRRLVAPC
